Source: patent US20120014957A1 (AbbVie / Abbott, published 2012)

What was measured:
CD-20 on cells [1] = target: T1, CD-20 on cells (UniProt P11836 1-297, limits assumed); assay: flow cytometry on cells, DVD-Ig at 2 ug/mL
T1 construct: whole, on cells
T1 sequence (looked up): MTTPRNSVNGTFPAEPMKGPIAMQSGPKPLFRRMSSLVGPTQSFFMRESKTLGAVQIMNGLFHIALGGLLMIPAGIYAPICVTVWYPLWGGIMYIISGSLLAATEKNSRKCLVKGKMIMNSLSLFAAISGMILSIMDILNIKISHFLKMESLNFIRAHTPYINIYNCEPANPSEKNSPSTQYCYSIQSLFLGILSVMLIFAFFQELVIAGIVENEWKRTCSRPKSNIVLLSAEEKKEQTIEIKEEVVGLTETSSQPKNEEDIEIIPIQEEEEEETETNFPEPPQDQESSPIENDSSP
Description: (§1) Stable cell lines overexpressing a cell-surface antigen of interest or human tumor cell lines were harvested from tissue culture flasks and resuspended in phosphate buffered saline (PBS) containing 5% fetal bovine serum (PBS/FBS). Prior to staining, human tumor cells were incubated on ice with (100 μl) human IgG at 5 μg/ml in PBS/FCS. 1−5×10⁵ cells were incubated with antibody or DVD-Ig (2 μg/mL) in PBS/FBS for 30-60 minutes on ice. Cells were washed twice and 100 μl of F(ab′)2 goat anti human IgG, Fcγ-phycoerythrin (1:200 dilution in PBS) (Jackson ImmunoResearch, West Grove, Pa., Cat. #109-116-170) was added. After a 30 minute incubation on ice, cells were washed twice and resuspended in PBS/FBS. Fluorescence was measured using a Becton Dickinson FACSCalibur (Becton Dickinson, San Jose, Calif.).
(§2) The geometric mean is the n root of the multiplication product of n fluorescent signals (a1×a2×a3 . . . an). With log-transformed data the geometric mean is used to normalize the weighting of the data distribution.

IGFR on cells [2] = target: T2, IGFR on cells (UniProt P08069 31-1367, limits assumed); assay: flow cytometry on cells, antibody at 2 ug/mL
T2 construct: whole, on cells; also called IGF1R
Description: as §1, §2

Recombinant Human β-NGF = Recombinant Human β-NGF (human, UniProt P01138 122-241); assay: cell-based or functional assay
NRP1 on cells [3] = target: T3, NRP1 on cells (UniProt O14786 22-923, limits assumed); assay: flow cytometry on cells, DVD-Ig at 2 ug/mL
T3 construct: whole, on cells
Description: as §1, §2

IGFR on cells [4] = target: T2, IGFR on cells; assay: flow cytometry on cells, DVD-Ig at 2 ug/mL
Description: as §1, §2

NRP1 on cells [5] = target: T3, NRP1 on cells; assay: flow cytometry on cells, antibody at 2 ug/mL
Description: as §1, §2

[6] = target: T4, Recombinant Human MSP R/Ron (human, UniProt Q04912 25-571, limits assumed); assay: SPR (Biacore)
T4 construct: Bought reagent
Description: (§3) The BIACORE assay (Biacore, Inc, Piscataway, N.J.) determines the affinity of antibodies or DVD-Ig with kinetic measurements of on-rate and off-rate constants. Binding of antibodies or DVD-Ig to a target antigen (for example, a purified recombinant target antigen) was determined by surface plasmon resonance-based measurements with a Biacore® 1000 or 3000 instrument (Biacore® AB, Uppsala, Sweden) using running HBS-EP (10 mM HEPES [pH 7.4], 150 mM NaCl, 3 mM EDTA, and 0.005% surfactant P20) at 25° C. All chemicals were obtained from Biacore® AB (Uppsala, Sweden) or otherwise from a different source as described in the text. For example, approximately 5000 RU of goat anti-mouse IgG, (Fcγ), fragment specific polyclonal antibody (Pierce Biotechnology Inc, Rockford, Ill.) diluted in 10 mM sodium acetate (pH 4.5) was directly immobilized across a CM5 research grade biosensor chip using a standard amine coupling kit according to manufacturer's instructions and procedures at 25 μg/ml. Unreacted moieties on the biosensor surface were blocked with ethanolamine. Modified carboxymethyl dextran surface in flowcell 2 and 4 was used as a reaction surface. Unmodified carboxymethyl dextran without goat anti-mouse IgG in flow cell 1 and 3 was used as the reference surface. For kinetic analysis, rate equations derived from the 1:1 Langmuir binding model were fitted simultaneously to association and dissociation phases of all eight injections (using global fit analysis) with the use of Biaevaluation 4.0.1 software. Purified antibodies or DVD-Ig were diluted in HEPES-buffered saline for capture across goat anti-mouse IgG specific reaction surfaces. Antibodies or DVD-Ig to be captured as a ligand (25 μg/ml) were injected over reaction matrices at a flow rate of 5 μl/min. The association and dissociation rate constants, kₒₙ (M⁻¹s⁻¹) and koff (s⁻¹) were determined under a continuous flow rate of 25 μl/min. Rate constants were derived by making kinetic binding measurements at different antigen concentrations ranging from 10-200 nM. The equilibrium dissociation constant (M) of the reaction between antibodies or DVD-Igs and the target antigen was then calculated from the kinetic rate constants by the following formula: KD=koff/kₒₙ. Binding was recorded as a function of time and kinetic rate constants were calculated.

Recombinant Human DLL4 = target: T5, Recombinant Human DLL4 (human, UniProt Q9NR61 27-524); assay: SPR (Biacore)
T5 construct: Bought reagent of the Biacore analyses
Description: as §3

DLL4 on cells = target: T6, DLL4 on cells (UniProt Q9NR61 27-685, limits assumed); assay: flow cytometry on cells, antibody at 2 ug/mL
T6 construct: whole, on cells
Description: as §1, §2

CD-20 on cells [7] = target: T1, CD-20 on cells; assay: flow cytometry on cells, antibody at 2 ug/mL
Description: as §1, §2

[8] = target: T7, Recombinant Human VEGF 165 (human, UniProt P15692-4 27-191); assay: SPR (Biacore)
T7 construct: Bought reagent
Description: as §3

T7 sequence (P15692 other isoform, or with tags, fused parts or gaps limits assumed): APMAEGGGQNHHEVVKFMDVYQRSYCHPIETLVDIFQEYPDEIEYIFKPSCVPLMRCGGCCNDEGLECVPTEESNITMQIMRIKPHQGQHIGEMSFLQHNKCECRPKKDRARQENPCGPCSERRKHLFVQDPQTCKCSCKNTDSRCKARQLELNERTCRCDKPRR

B1: DVD1336 (bispecific antibody, human IgG1, kappa)
heavy: not shown
light: QIVLSQSPAILSPSPGEKVTMTCRASSSVSYIHWFQQKPGSSPKPWIYATSNLASGVPVRFSGSGSGTSYSLTISRVEAEDAATYYCQQWTSNPPTFGGGTKLEIKRTVAAPDIQMTQSPSSLSASVGDRVTITCRASEDIYNALAWYQQKPGKAPKLLIYNTDTLHTGVPSRFSGSGSGTDYTLTISSLQPEDFATYFCQHYFHYPRTFGQGTKVEIKRTVAAPSVFIFPPSDEQLKSGTASVVCLLNNFYPREAKVQWKVDNALQSGNSQESVTEQDSKDSTYSLSSTLTLSKADYEKHKVYACEVTHQGLSSPVTKSFNRGEC
notes: DVD-Ig; also called DVD1336H; DVD1336L
Q: With B1 as the binder, how does the “FACS Geometric Mean N-terminal” value (CD-20 on cells [1]) read?
A: Its value is 754.

B2: AB011 (antibody, V domains shown)
VH: EVQLLESGGGLVQPGGSLRLSCTASGFTFSSYAMNWVRQAPGKGLEWVSAISGSGGTTFYADSVKGRFTISRDNSRTTLYLQMNSLRAEDTAVYYCAKDLGWSDSYYYYYGMDVWGQGTTVTVSS
VL: DIQMTQFPSSLSASVGDRVTITCRASQGIRNDLGWYQQKPGKAPKRLIYAASRLHRGVPSRFSGSGSGTEFTLTISSLQPEDFATYYCLQHNSYPCSFGQGTKLEIKR
notes: Parent antibody; also called IGFR; IGF1R
Q: B2 was tested. Which “FACS Geometric Mean” value (IGFR on cells [2]) did it give?
A: The value was 535.

B3: DVD1352 (bispecific antibody, human IgG1, kappa)
heavy: not shown
light: DIQMTQSPSSLSASVGDRVTITCRASQSISSYLAWYQQKPGKAPKLLIYGASSRASGVPSRFSGSGSGTDFTLTISSLQPEDFATYYCQQYMSVPITFGQGTKVEIKRTVAAPDIQMTQSPSSLSASVGDRVTITCRASEDIYNALAWYQQKPGKAPKLLIYNTDTLHTGVPSRFSGSGSGTDYTLTISSLQPEDFATYFCQHYFHYPRTFGQGTKVEIKRTVAAPSVFIFPPSDEQLKSGTASVVCLLNNFYPREAKVQWKVDNALQSGNSQESVTEQDSKDSTYSLSSTLTLSKADYEKHKVYACEVTHQGLSSPVTKSFNRGEC
notes: DVD-Ig; also called DVD1352H; DVD1352L
Q: B3 was tested. Which “C-Terminal VD NGF Inhibition Assay EC50” value (Recombinant Human β-NGF) did it give?
A: The value was 0.226 nM.

Q: And the “FACS Geometric Mean N-terminal” value (NRP1 on cells [3])?
A: The value was 42.

B4: DVD1324 (bispecific antibody, human IgG1, kappa)
heavy: not shown
light: DIQMTQFPSSLSASVGDRVTITCRASQGIRNDLGWYQQKPGKAPKRLIYAASRLHRGVPSRFSGSGSGTEFTLTISSLQPEDFATYYCLQHNSYPCSFGQGTKLEIKRTVAAPDIQMTQSPSSLSASVGDRVTITCRASEDIYNALAWYQQKPGKAPKLLIYNTDTLHTGVPSRFSGSGSGTDYTLTISSLQPEDFATYFCQHYFHYPRTFGQGTKVEIKRTVAAPSVFIFPPSDEQLKSGTASVVCLLNNFYPREAKVQWKVDNALQSGNSQESVTEQDSKDSTYSLSSTLTLSKADYEKHKVYACEVTHQGLSSPVTKSFNRGEC
notes: DVD-Ig; also called DVD1324H; DVD1324L
Q: With B4 as the binder, how does the “FACS Geometric Mean N-terminal” value (IGFR on cells [4]) read?
A: The value was 825.

B5: AB016 (antibody, V domains shown)
VH: EVQLVESGGGLVQPGGSLRLSCAASGFSFSSEPISWVRQAPGKGLEWVSSITGKNGYTYYADSVKGRFTISADTSKNTAYLQMNSLRAEDTAVYYCARWGKKVYGMDVWGQGTLVTVSS
VL: DIQMTQSPSSLSASVGDRVTITCRASQSISSYLAWYQQKPGKAPKLLIYGASSRASGVPSRFSGSGSGTDFTLTISSLQPEDFATYYCQQYMSVPITFGQGTKVEIKR
notes: Parent antibody; also called NRP1
Q: With B5 as the binder, how does the “FACS Geometric Mean” value (NRP1 on cells [5]) read?
A: The value was 338.

B6: DVD1334 (bispecific antibody, human IgG1, kappa)
heavy: not shown
light: QAVLTQPSSLSAPPGASASLTCTLRSGFNVDSYRISWYQQKPGSPPQYLLRYKSDSDKQQGSGVPSRFSGSKDASANAGILLISGLQSEDEADYYCMIWHSSAWVFGGGTKLTVLRTVAAPDIQMTQSPSSLSASVGDRVTITCRASEDIYNALAWYQQKPGKAPKLLIYNTDTLHTGVPSRFSGSGSGTDYTLTISSLQPEDFATYFCQHYFHYPRTFGQGTKVEIKRTVAAPSVFIFPPSDEQLKSGTASVVCLLNNFYPREAKVQWKVDNALQSGNSQESVTEQDSKDSTYSLSSTLTLSKADYEKHKVYACEVTHQGLSSPVTKSFNRGEC
notes: DVD-Ig; also called DVD1334H; DVD1334L
Q: How did the Kd [6] turn out when B6 was run?
A: Its Kd is 5.7 nM.

Q: What about the koff [6] of the same binder?
A: The koff was 0.0067 s⁻¹.

Q: What about the kon [6] of the same binder?
A: The kon was 1.2e+06 M⁻¹ s⁻¹.

B7: AB015 (antibody, V domains shown)
VH: EVQLVESGGGLVQPGGSLRLSCAASGFTFTDNWISWVRQAPGKGLEWVGYISPNSGFTYYADSVKGRFTISADTSKNTAYLQMNSLRAEDTAVYYCARDNFGGYFDYWGQGTLVTVSS
VL: DIQMTQSPSSLSASVGDRVTITCRASQDVSTAVAWYQQKPGKAPKLLIYSASFLYSGVPSRFSGSGSGTDFTLTISSLQPEDFATTYYCQQSYTGTVTFGQGTKVEIKR
notes: Parent antibody; also called DLL4; AB015VH
Q: What does the source list for B7?
A: Kd (Recombinant Human DLL4): 0.414 nM; koff (Recombinant Human DLL4): 0.000166 s⁻¹; kon (Recombinant Human DLL4): 400000 M⁻¹ s⁻¹; FACS Geometric Mean (DLL4 on cells): 308

B8: AB001 (antibody, V domains shown)
VH: QVQLQQPGAELVKPGASVKMSCKASGYTFTSYNMHWVKQTPGRGLEWIGAIYPGNGDTSYNQKFKGKATLTADKSSSTAYMQLSSLTSEDSAVYYCARSTYYGGDWYFNVWGAGTTVTVSA
VL: QIVLSQSPAILSPSPGEKVTMTCRASSSVSYIHWFQQKPGSSPKPWIYATSNLASGVPVRFSGSGSGTSYSLTISRVEAEDAATYYCQQWTSNPPTFGGGTKLEIKR
notes: Parent antibody; also called CD-20; AB001VH
Q: How did the “FACS Geometric Mean” value (CD-20 on cells [7]) turn out when B8 was run?
A: Its value is 1400.

B9: DVD1328 (bispecific antibody, human IgG1, kappa)
heavy: not shown
light: DIQMTQSPSSLSASVGDRVTITCSASQDISNYLNWYQQKPGKAPKVLIYFTSSLHSGVPSRFSGSGSGTDFTLTISSLQPEDFATYYCQQYSTVPWTFGQGTKVEIKRTVAAPDIQMTQSPSSLSASVGDRVTITCRASEDIYNALAWYQQKPGKAPKLLIYNTDTLHTGVPSRFSGSGSGTDYTLTISSLQPEDFATYFCQHYFHYPRTFGQGTKVEIKRTVAAPSVFIFPPSDEQLKSGTASVVCLLNNFYPREAKVQWKVDNALQSGNSQESVTEQDSKDSTYSLSSTLTLSKADYEKHKVYACEVTHQGLSSPVTKSFNRGEC
notes: DVD-Ig; also called DVD1328H; DVD1328L
Q: What does the source list for B9?
A: Kd [8]: 0.08 nM; koff [8]: 7.7e-05 s⁻¹; kon [8]: 960000 M⁻¹ s⁻¹
